B1: (Pl)EctB, L-2,4-diaminobutyrate transaminase EctB from Paenibacillus lautus (enzyme, Paenibacillus lautus strain Y412MC10, UniProt A0A385TGF8 1-430, looked up)
chain: MDNQVMEKPKLTVFNKLESEVRSYCRSFQTVFDKARNAKLWDTQGNEYIDFFAGAGALNYGHNNERIREKLVDYILQDGVTHSLDMATGAKETFLTRFQEIILKPRGWDHKVMFPGPTGTNAVEAALKIARKVTGRSTVLCFTNAFHGMSLGSLAVTGNAFKRQGAGVDLSHSVFMPYDGYFGSDVDTMAYMEKLLDDPGSGIPLPAAVIVEAVQGEGGLNAASRQWLQKLARICKDKGMLLILDDIQMGCGRTGSFFSFDDAGIEPDIVCLSKSIGGFGLPMAITLIKPEIDIWEPGEHNGTFRGNNLGFVAAAEALSYWKTEEFQLDIGIREHRIRQSLENVVREYPRLGGEIRGRGMIQGVAFDKPEHAGRLSEIAFEQGLIMETSGPHSEVAKLMPPLTIEMNTLAEGLGIFENSMKQLAAEERLS
notes: EctB (L-2,4-diaminobutyrate transaminase) of Paenibacillus lautus strain Y412MC10; codon-optimized synthetic ectB gene; calculated mass 49.1 kDa including the Strep-tag II peptide and linker; The protein was purified as an apo-protein without PLP; also called (Pl)EctB wild-type protein; P. lautus EctB; not shown: Strep-tag II, N-terminal, kept
B2: (Pl)EctB Lys274/His variant (enzyme, Paenibacillus lautus strain Y412MC10, UniProt A0A385TGF8 1-430, looked up)
chain: MDNQVMEKPKLTVFNKLESEVRSYCRSFQTVFDKARNAKLWDTQGNEYIDFFAGAGALNYGHNNERIREKLVDYILQDGVTHSLDMATGAKETFLTRFQEIILKPRGWDHKVMFPGPTGTNAVEAALKIARKVTGRSTVLCFTNAFHGMSLGSLAVTGNAFKRQGAGVDLSHSVFMPYDGYFGSDVDTMAYMEKLLDDPGSGIPLPAAVIVEAVQGEGGLNAASRQWLQKLARICKDKGMLLILDDIQMGCGRTGSFFSFDDAGIEPDIVCLSHSIGGFGLPMAITLIKPEIDIWEPGEHNGTFRGNNLGFVAAAEALSYWKTEEFQLDIGIREHRIRQSLENVVREYPRLGGEIRGRGMIQGVAFDKPEHAGRLSEIAFEQGLIMETSGPHSEVAKLMPPLTIEMNTLAEGLGIFENSMKQLAAEERLS
notes: EctB (L-2,4-diaminobutyrate transaminase) of Paenibacillus lautus strain Y412MC10; codon-optimized synthetic ectB gene with Lys274 changed to His (AAA/CAT) by site-directed mutagenesis of pAR8; not shown: Strep-tag II, N-terminal, kept

Key:
(Pl)EctB = molecular target: T1, (Pl)EctB (Paenibacillus lautus, UniProt A0A385TGF8); test: activation of apo-enzyme by added PLP, L-glutamate formation by HPLC; assay type: biochemical; details: 10 mM DAB, 15 mM 2-oxoglutarate, 100 mM Tris-HCl pH 7.0, 100 mM NaCl, 45 °C, 1 min; titration curve only, no constant; Schiff base at Lys274 inferred
T1 construct: full length; N-terminal Strep-tag II (WSHPQFEK) with linker SGMIEGR (factor Xa site), plasmid pAR8; no tag removal described; E. coli BL21; homotetramer; purified as apo-protein, PLP added

[1] = molecular target: the molecule itself; test: SEC-MALS; S200 300/10 GL analytical column with MALS and RI detectors, 4°C; 100 μL sample at 100 μM protein; 20 mM HEPES pH 7.5, 200 mM NaCl, 20 mM MgCl2, 20 mM KCl

Molecule	activation of apo-enzyme by added PLP, L-glutamate formation by HPLC ((Pl)EctB)	stoichiometry N [1]
Cc1ncc(COP(=O)(O)O)c(C=O)c1O [PLP]	the specific activity of (Pl)EctB strictly relies on the addition of PLP	
B1		4
B2		4
